Measurements taken from patent publication US11708423B2, “Chimeric engulfment receptor molecules and methods of use” (CERO THERAPEUTICS, INC., priority 2017, dated 2023).

What follows are molecules tested on H1975 lung adenocarcinoma cells (assay: LDH assay, H1975 cells, 48 hours co-culture with 1 μM Osimeritinib). Details: E:T 1:1, 48 hours, CD4+ T cells.
Type: cell-based
From the text: CER30 comprises a Tim4 binding domain, Tim4 transmembrane domain, and an engulfment signaling domain comprising a primary engulfment signaling domain comprising a TRAF2 signaling domain. CER30 has a polypeptide sequence as set forth in SEQ ID NO:96. CER110 has a polypeptide sequence of SEQ ID NO:125 and comprises a Tim4 binding domain, Tim4 transmembrane domain, and an engulfment signaling domain comprising a primary engulfment signaling domain comprising a TRAF6 signaling domain and a secondary engulfment signaling domain comprising a DAP12 signaling domain. CER112 has a polypeptide sequence of SEQ ID NO:128 and comprises a Tim4 binding domain, Tim4 transmembrane domain, and an engulfment signaling domain comprising a primary engulfment signaling domain comprising a TRAF6 signaling domain and a secondary engulfment signaling domain comprising a NFAM1 signaling domain. CER127 has a polypeptide sequence of SEQ ID NO:175 and comprises a Tim4 binding domain, Tim4 transmembrane domain, and an engulfment signaling domain comprising a primary engulfment signaling domain comprising a TRAF2 signaling domain and a secondary engulfment signaling domain comprising a TLR2 signaling domain. H1975 cells are more resistant to EGFR inhibitors, so Osimeritinib was used at slightly higher concentration. H1975 lung adenocarcinoma cells harboring an EGFR mutation were co-cultured with CER-expressing or mock-transduced (vector only) CD4+ T cells with 1 μM of Osimeritinib. After 48 hours of co-culture at a 1:1 effector:target cell ratio, T cells were washed away, and the number of viable H1975 cells was quantified using a calorimetric LDH assay (FIG. 57). Cell viability experiments were performed in triplicate and presented as % of control.

Molecule | killing of H1975 cells (LDH)
CER124: Tim4 binding and transmembrane domains, TLR2 primary and NFAM1 secondary signaling domains; SEQ ID NO:151 (protein, CER124 protein) MSKGLLLLWLVTELWWLYLTPAASEDTIIGFLGQPVTLPCHYLSWSQSRNSMCWGKGSCPNSKCNAELLRTDGTRIISRKSTKYTLLGKVQFGEVSLTISNTNRGDSGVYCCRIEVPGWFNDVKKNVRLELRRATTTKKPTTTTRPTTTPYVTTTTPELLPTTVMTTSVLPTTTPPQTLATTAFSTAVTTCPSTTPGSFSQETTKGSAFTTESETLPASNHSQRSMMTISTDIAVLRPTGSNPGILPSTSQLTTQKTTLTTSESLQKTTKSHQINSRQTILIIACCVGFVLMVLLFLAFLHRFHGLWYMKMMWAWLQAKRKPRKAPSRNICYDAFVSYSERDAYWVENLMVQELENFNPPFKLCLHKRDFIPGKWIIDNIIDSIEKSHKTVFVLSENFVKSEWCKYELDFSHFRLFDENNDAAILILLEPIEKKAIPQRFCKLRKIMNTKTYLEWPMDEAQREGFWVNLRAAIKSLWNKKRMRGPGKDPTRKCPDPRSASSPKQHPSESVYTALQRRETEVYACIENEDGSSPTAKQSPLSQERPHRFEDDGELNLVYENL | synergistic killing of H1975 lung adenocarcinoma cells upon EGFR inhibition
CER30: Tim4 binding and transmembrane domains, Traf2 signaling domain; SEQ ID NO:96 (protein, CER30 chimeric engulfment receptor) MSKGLLLLWLVTELWWLYLTPAASEDTIIGFLGQPVTLPCHYLSWSQSRNSMCWGKGSCPNSKCNAELLRTDGTRIISRKSTKYTLLGKVQFGEVSLTISNTNRGDSGVYCCRIEVPGWFNDVKKNVRLELRRATTTKKPTTTTRPTTTPYVTTTTPELLPTTVMTTSVLPTTTPPQTLATTAFSTAVTTCPSTTPGSFSQETTKGSAFTTESETLPASNHSQRSMMTISTDIAVLRPTGSNPGILPSTSQLTTQKTTLTTSESLQKTTKSHQINSRQTILIIACCVGFVLMVLLFLAFLMAAASVTPPGSLELLQPGFSKTLLGTKLEAKYLCSACRNVLRRPFQAQCGHRYCSFCLASILSSGPQNCAACVHEGIYEEGISILESSSAFPDNAARREVESLPAVCPSDGCTWKGTLKEYESCHEGRCPLMLTECPACKGLVRLGEKERHLEHECPERSLSCRHCRAPCCGADVKAHHEVCPKFPLTCDGCGKKKIPREKFQDHVKTCGKCRVPCRFHAIGCLETVEGEKQQEHEVQWLREHLAMLLSSVLEAKPLLGDQSHAGSELLQRCESLEKKTATFENIVCVLNREVERVAMTAEAC | synergistic killing of H1975 lung adenocarcinoma cells upon EGFR inhibition
CER129: Tim4 binding and transmembrane domains, TLR8 primary and TRAF2 secondary signaling domains; SEQ ID NO:177 (protein, CER129 protein) MSKGLLLLWLVTELWWLYLTPAASEDTIIGFLGQPVTLPCHYLSWSQSRNSMCWGKGSCPNSKCNAELLRTDGTRIISRKSTKYTLLGKVQFGEVSLTISNTNRGDSGVYCCRIEVPGWFNDVKKNVRLELRRATTTKKPTTTTRPTTTPYVTTTTPELLPTTVMTTSVLPTTTPPQTLATTAFSTAVTTCPSTTPGSFSQETTKGSAFTTESETLPASNHSQRSMMTISTDIAVLRPTGSNPGILPSTSQLTTQKTTLTTSESLQKTTKSHQINSRQTILIIACCVGFVLMVLLFLAFLHHLFYWDVWFIYNVCLAKVKGYRSLSTSQTFYDAYISYDTKDASVTDWVINELRYHLEESRDKNVLLCLEERDWDPGLAIIDNLMQSINQSKKTVFVLTKKYAKSWNFKTAFYLALQRLMDENMDVIIFILLEPVLQHSQYLRLRQRICKSSILQWPDNPKAEGLFWQTLRNVVLTENDSRYNNMYVDSIKQYMAAASVTPPGSLELLQPGFSKTLLGTKLEAKYLCSACRNVLRRPFQAQCGHRYCSFCLASILSSGPQNCAACVHEGIYEEGISILESSSAFPDNAARREVESLPAVCPSDGCTWKGTLKEYESCHEGRCPLMLTECPACKGLVRLGEKERHLEHECPERSLSCRHCRAPCCGADVKAHHEVCPKFPLTCDGCGKKKIPREKFQDHVKTCGKCRVPCRFHAIGCLETVEGEKQQEHEVQWLREHLAMLLSSVLEAKPLLGDQSHAGSELLQRCESLEKKTATFENIVCVLNREVERVAMTAEAC | synergistic killing of H1975 lung adenocarcinoma cells upon EGFR inhibition
CER127: Tim4 binding and transmembrane domains, TRAF2 primary and TLR2 secondary signaling domains; SEQ ID NO:175 (protein, CER127 protein) MSKGLLLLWLVTELWWLYLTPAASEDTIIGFLGQPVTLPCHYLSWSQSRNSMCWGKGSCPNSKCNAELLRTDGTRIISRKSTKYTLLGKVQFGEVSLTISNTNRGDSGVYCCRIEVPGWFNDVKKNVRLELRRATTTKKPTTTTRPTTTPYVTTTTPELLPTTVMTTSVLPTTTPPQTLATTAFSTAVTTCPSTTPGSFSQETTKGSAFTTESETLPASNHSQRSMMTISTDIAVLRPTGSNPGILPSTSQLTTQKTTLTTSESLQKTTKSHQINSRQTILIIACCVGFVLMVLLFLAFLMAAASVTPPGSLELLQPGFSKTLLGTKLEAKYLCSACRNVLRRPFQAQCGHRYCSFCLASILSSGPQNCAACVHEGIYEEGISILESSSAFPDNAARREVESLPAVCPSDGCTWKGTLKEYESCHEGRCPLMLTECPACKGLVRLGEKERHLEHECPERSLSCRHCRAPCCGADVKAHHEVCPKFPLTCDGCGKKKIPREKFQDHVKTCGKCRVPCRFHAIGCLETVEGEKQQEHEVQWLREHLAMLLSSVLEAKPLLGDQSHAGSELLQRCESLEKKTATFENIVCVLNREVERVAMTAEACHRFHGLWYMKMMWAWLQAKRKPRKAPSRNICYDAFVSYSERDAYWVENLMVQELENFNPPFKLCLHKRDFIPGKWIIDNIIDSIEKSHKTVFVLSENFVKSEWCKYELDFSHFRLFDENNDAAILILLEPIEKKAIPQRFCKLRKIMNTKTYLEWPMDEAQREGFWVNLRAAIKS | synergistic killing of H1975 lung adenocarcinoma cells upon EGFR inhibition
CER108: Tim4 binding and transmembrane domains, DAP12 primary and TLR8 secondary signaling domains; SEQ ID NO:137 (protein, CER108 protein) MSKGLLLLWLVTELWWLYLTPAASEDTIIGFLGQPVTLPCHYLSWSQSRNSMCWGKGSCPNSKCNAELLRTDGTRIISRKSTKYTLLGKVQFGEVSLTISNTNRGDSGVYCCRIEVPGWFNDVKKNVRLELRRATTTKKPTTTTRPTTTPYVTTTTPELLPTTVMTTSVLPTTTPPQTLATTAFSTAVTTCPSTTPGSFSQETTKGSAFTTESETLPASNHSQRSMMTISTDIAVLRPTGSNPGILPSTSQLTTQKTTLTTSESLQKTTKSHQINSRQTILIIACCVGFVLMVLLFLAFLYFLGRLVPRGRGAAEAATRKQRITETESPYQELQGQRSDVYSDLNTQRPYYKHHLFYWDVWFIYNVCLAKVKGYRSLSTSQTFYDAYISYDTKDASVTDWVINELRYHLEESRDKNVLLCLEERDWDPGLAIIDNLMQSINQSKKTVFVLTKKYAKSWNFKTAFYLALQRLMDENMDVIIFILLEPVLQHSQYLRLRQRICKSSILQWPDNPKAEGLFWQTLRNVVLTENDSRYNNMYVDSIKQY | synergistic killing of H1975 lung adenocarcinoma cells upon EGFR inhibition
CER27: Tim4 binding and transmembrane domains, TLR2 signaling domain; SEQ ID NO:93 (protein, CER27 chimeric engulfment receptor) MSKGLLLLWLVTELWWLYLTPAASEDTIIGFLGQPVTLPCHYLSWSQSRNSMCWGKGSCPNSKCNAELLRTDGTRIISRKSTKYTLLGKVQFGEVSLTISNTNRGDSGVYCCRIEVPGWFNDVKKNVRLELRRATTTKKPTTTTRPTTTPYVTTTTPELLPTTVMTTSVLPTTTPPQTLATTAFSTAVTTCPSTTPGSFSQETTKGSAFTTESETLPASNHSQRSMMTISTDIAVLRPTGSNPGILPSTSQLTTQKTTLTTSESLQKTTKSHQINSRQTILIIACCVGFVLMVLLFLAFLHRFHGLWYMKMMWAWLQAKRKPRKAPSRNICYDAFVSYSERDAYWVENLMVQELENFNPPFKLCLHKRDFIPGKWIIDNIIDSIEKSHKTVFVLSENFVKSEWCKYELDFSHFRLFDENNDAAILILLEPIEKKAIPQRFCKLRKIMNTKTYLEWPMDEAQREGFWVNLRAAIKS | synergistic killing of H1975 lung adenocarcinoma cells upon EGFR inhibition
